Laboratory results from the supplement of paper PMC10567573.

B1: ZNF8 (parent)
chain: SLGRHKRTHTGEKPYTCSVCGKSF
B2: TEKT4 (parent)
chain: SEVEELNMSLTALREKLLEAEQSL

Variants of: B1
Experiment: protein stability index of a GFP-peptide fusion (GPS, HEK-293T) (PSI 1-6); higher = more stable
Settings: c terminus: a fixed tail appended
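Note: lentivirally expressed fusions sorted by FACS into six bins by GFP to DsRed ratio, PSI derived from sequencing read proportions per bin multiplied by bin number.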

Variant	protein stability index
SLGRHKRTHTGEKPYTCSVCGKSH [F24H]	4.04
SLGRHKRTHTGEKPYTCSVCGKSI [F24I]	2.92
SLGRHKRTHTGEKPYTCSVCGKSK [F24K]	3.62
SLGRHKRTHTGEKPYTCSVCGKSY [F24Y]	2.45
SLGRHKRTHTGEKPYTCSVCGKSL [F24L]	3.02
SLGRHKRTHTGEKPYTCSVCGKSQ [F24Q]	2.69
SLGRHKRTHTGEKPYTCSVCGKSN [F24N]	3.27
SLGRHKRTHTGEKPYTCSVCGKSS [F24S]	3.44
SLGRHKRTHTGEKPYTCSVCGKSR [F24R]	2.92
SLGRHKRTHTGEKPYTCSVCGKST [F24T]	2.24
SLGRHKRTHTGEKPYTCSVCGKSV [F24V]	3.27
SLGRHKRTHTGEKPYTCSVCGKSP [F24P]	3.5
SLGRHKRTHTGEKPYTCSVCGKSW [F24W]	2.93
SLGRHKRTHTGEKPYTCSVCGKSM [F24M]	2.85

Variants of: B2
Experiment: as above
Settings: c terminus: a fixed tail appended

Variant	protein stability index
SEVEELNQSLTALREKLLEAEQSL [M8Q]	2.56
SEVEELNESLTALREKLLEAEQSL [M8E]	3.29
SEVEELNLSLTALREKLLEAEQSL [M8L]	3.36
SEVEELNVSLTALREKLLEAEQSL [M8V]	3.77
SEVEELNKSLTALREKLLEAEQSL [M8K]	2.77
SEVEELNSSLTALREKLLEAEQSL [M8S]	2.81
SEVEELNHSLTALREKLLEAEQSL [M8H]	2.96
SEVEELNPSLTALREKLLEAEQSL [M8P]	3.99
SEVEELNYSLTALREKLLEAEQSL [M8Y]	2.37
SEVEELNFSLTALREKLLEAEQSL [M8F]	3.02
SEVEELNISLTALREKLLEAEQSL [M8I]	3.17
SEVEELNGSLTALREKLLEAEQSL [M8G]	4.32
SEVEELNWSLTALREKLLEAEQSL [M8W]	2.28
SEVEELNDSLTALREKLLEAEQSL [M8D]	3.5
SEVEELNRSLTALREKLLEAEQSL [M8R]	2.12
SEVEELNNSLTALREKLLEAEQSL [M8N]	2.41
SEVEELNCSLTALREKLLEAEQSL [M8C]	2.27
SEVEELNASLTALREKLLEAEQSL [M8A]	2.9
SEVEELNTSLTALREKLLEAEQSL [M8T]	3.25
SFVEELNMSLTALREKLLEAEQSL [E2F]	1.76
SVVEELNMSLTALREKLLEAEQSL [E2V]	2.45
SWVEELNMSLTALREKLLEAEQSL [E2W]	1.98
SAVEELNMSLTALREKLLEAEQSL [E2A]	2.84
SDVEELNMSLTALREKLLEAEQSL [E2D]	3.06
SHVEELNMSLTALREKLLEAEQSL [E2H]	2.3

Variant	protein stability index
SPVEELNMSLTALREKLLEAEQSL [E2P]	3.14
SSVEELNMSLTALREKLLEAEQSL [E2S]	2.34
SCVEELNMSLTALREKLLEAEQSL [E2C]	2.66
STVEELNMSLTALREKLLEAEQSL [E2T]	2.41
SQVEELNMSLTALREKLLEAEQSL [E2Q]	2.69
SKVEELNMSLTALREKLLEAEQSL [E2K]	2.19
SIVEELNMSLTALREKLLEAEQSL [E2I]	2.42
SNVEELNMSLTALREKLLEAEQSL [E2N]	2.55
SMVEELNMSLTALREKLLEAEQSL [E2M]	2.74
SRVEELNMSLTALREKLLEAEQSL [E2R]	3.06
SLVEELNMSLTALREKLLEAEQSL [E2L]	2.72
SGVEELNMSLTALREKLLEAEQSL [E2G]	2.31
SYVEELNMSLTALREKLLEAEQSL [E2Y]	1.68
MEVEELNMSLTALREKLLEAEQSL [S1M]	2.27
AEVEELNMSLTALREKLLEAEQSL [S1A]	3.43
KEVEELNMSLTALREKLLEAEQSL [S1K]	2.23
DEVEELNMSLTALREKLLEAEQSL [S1D]	3.64
NEVEELNMSLTALREKLLEAEQSL [S1N]	2.2
IEVEELNMSLTALREKLLEAEQSL [S1I]	2.37
GEVEELNMSLTALREKLLEAEQSL [S1G]	3.25
FEVEELNMSLTALREKLLEAEQSL [S1F]	2.31
CEVEELNMSLTALREKLLEAEQSL [S1C]	2.63
HEVEELNMSLTALREKLLEAEQSL [S1H]	3.19
VEVEELNMSLTALREKLLEAEQSL [S1V]	2.76
YEVEELNMSLTALREKLLEAEQSL [S1Y]	2.31

Variant	protein stability index
QEVEELNMSLTALREKLLEAEQSL [S1Q]	3.52
LEVEELNMSLTALREKLLEAEQSL [S1L]	2.96
TEVEELNMSLTALREKLLEAEQSL [S1T]	2.6
EEVEELNMSLTALREKLLEAEQSL [S1E]	3.28
REVEELNMSLTALREKLLEAEQSL [S1R]	2.19
PEVEELNMSLTALREKLLEAEQSL [S1P]	2.94
WEVEELNMSLTALREKLLEAEQSL [S1W]	2.26
SEVEELNMKLTALREKLLEAEQSL [S9K]	2.82
SEVEELNMNLTALREKLLEAEQSL [S9N]	3.06
SEVEELNMLLTALREKLLEAEQSL [S9L]	2.3
SEVEELNMHLTALREKLLEAEQSL [S9H]	3.28
SEVEELNMYLTALREKLLEAEQSL [S9Y]	2.33
SEVEELNMALTALREKLLEAEQSL [S9A]	3
SEVEELNMGLTALREKLLEAEQSL [S9G]	2.61
SEVEELNMVLTALREKLLEAEQSL [S9V]	1.66
SEVEELNMILTALREKLLEAEQSL [S9I]	2.14
SEVEELNMMLTALREKLLEAEQSL [S9M]	2.4
SEVEELNMPLTALREKLLEAEQSL [S9P]	2.85
SEVEELNMCLTALREKLLEAEQSL [S9C]	2.6
SEVEELNMRLTALREKLLEAEQSL [S9R]	3.13
SEVEELNMDLTALREKLLEAEQSL [S9D]	3.57
SEVEELNMTLTALREKLLEAEQSL [S9T]	2.67
SEVEELNMFLTALREKLLEAEQSL [S9F]	2.28
SEVEELNMWLTALREKLLEAEQSL [S9W]	2.85
SEVEELNMELTALREKLLEAEQSL [S9E]	2.95

Variant	protein stability index
SESEELNMSLTALREKLLEAEQSL [V3S]	3.29
SETEELNMSLTALREKLLEAEQSL [V3T]	2.99
SEDEELNMSLTALREKLLEAEQSL [V3D]	3.64
SEIEELNMSLTALREKLLEAEQSL [V3I]	3.16
SEQEELNMSLTALREKLLEAEQSL [V3Q]	3.4
SEWEELNMSLTALREKLLEAEQSL [V3W]	2.4
SEGEELNMSLTALREKLLEAEQSL [V3G]	3.67
SEYEELNMSLTALREKLLEAEQSL [V3Y]	2.95
SEEEELNMSLTALREKLLEAEQSL [V3E]	3.98
SEAEELNMSLTALREKLLEAEQSL [V3A]	3.61
SENEELNMSLTALREKLLEAEQSL [V3N]	2.57
SEPEELNMSLTALREKLLEAEQSL [V3P]	3.47
SEMEELNMSLTALREKLLEAEQSL [V3M]	2.63
SELEELNMSLTALREKLLEAEQSL [V3L]	3.51
SEREELNMSLTALREKLLEAEQSL [V3R]	2.83
SEFEELNMSLTALREKLLEAEQSL [V3F]	2.83
SECEELNMSLTALREKLLEAEQSL [V3C]	3.39
SEHEELNMSLTALREKLLEAEQSL [V3H]	3.29
SEKEELNMSLTALREKLLEAEQSL [V3K]	2.45
SEVFELNMSLTALREKLLEAEQSL [E4F]	2.34
SEVAELNMSLTALREKLLEAEQSL [E4A]	1.86
SEVDELNMSLTALREKLLEAEQSL [E4D]	2.63
SEVVELNMSLTALREKLLEAEQSL [E4V]	2.58
SEVLELNMSLTALREKLLEAEQSL [E4L]	2.26
SEVIELNMSLTALREKLLEAEQSL [E4I]	2.59

Variant	protein stability index
SEVSELNMSLTALREKLLEAEQSL [E4S]	2.71
SEVHELNMSLTALREKLLEAEQSL [E4H]	2.06
SEVKELNMSLTALREKLLEAEQSL [E4K]	2.24
SEVMELNMSLTALREKLLEAEQSL [E4M]	2.07
SEVRELNMSLTALREKLLEAEQSL [E4R]	2.02
SEVGELNMSLTALREKLLEAEQSL [E4G]	2.89
SEVQELNMSLTALREKLLEAEQSL [E4Q]	2.32
SEVYELNMSLTALREKLLEAEQSL [E4Y]	1.99
SEVCELNMSLTALREKLLEAEQSL [E4C]	2.29
SEVTELNMSLTALREKLLEAEQSL [E4T]	2.59
SEVPELNMSLTALREKLLEAEQSL [E4P]	2.73
SEVWELNMSLTALREKLLEAEQSL [E4W]	1.68
SEVNELNMSLTALREKLLEAEQSL [E4N]	3.12
SEVEELDMSLTALREKLLEAEQSL [N7D]	3.24
SEVEELAMSLTALREKLLEAEQSL [N7A]	2.35
SEVEELRMSLTALREKLLEAEQSL [N7R]	3.92
SEVEELVMSLTALREKLLEAEQSL [N7V]	1.95
SEVEELPMSLTALREKLLEAEQSL [N7P]	3.42
SEVEELMMSLTALREKLLEAEQSL [N7M]	2.31
SEVEELHMSLTALREKLLEAEQSL [N7H]	2.43
SEVEELCMSLTALREKLLEAEQSL [N7C]	2.48
SEVEELEMSLTALREKLLEAEQSL [N7E]	2.56
SEVEELFMSLTALREKLLEAEQSL [N7F]	1.89
SEVEELIMSLTALREKLLEAEQSL [N7I]	3.09
SEVEELWMSLTALREKLLEAEQSL [N7W]	2.1

Variant	protein stability index
SEVEELTMSLTALREKLLEAEQSL [N7T]	2.63
SEVEELLMSLTALREKLLEAEQSL [N7L]	2.31
SEVEELKMSLTALREKLLEAEQSL [N7K]	2.84
SEVEELGMSLTALREKLLEAEQSL [N7G]	2.94
SEVEELSMSLTALREKLLEAEQSL [N7S]	2.97
SEVEELQMSLTALREKLLEAEQSL [N7Q]	2.67
SEVEELYMSLTALREKLLEAEQSL [N7Y]	3.42
SEVEELNMSCTALREKLLEAEQSL [L10C]	3.15
SEVEELNMSATALREKLLEAEQSL [L10A]	3.75
SEVEELNMSDTALREKLLEAEQSL [L10D]	4.03
SEVEELNMSETALREKLLEAEQSL [L10E]	3.55
SEVEHLNMSLTALREKLLEAEQSL [E5H]	2.72
SEVEGLNMSLTALREKLLEAEQSL [E5G]	2.73
SEVEMLNMSLTALREKLLEAEQSL [E5M]	2.22
SEVEVLNMSLTALREKLLEAEQSL [E5V]	2.64
SEVETLNMSLTALREKLLEAEQSL [E5T]	2.54
SEVEPLNMSLTALREKLLEAEQSL [E5P]	2.63
SEVEDLNMSLTALREKLLEAEQSL [E5D]	2.63
SEVENLNMSLTALREKLLEAEQSL [E5N]	2.63
SEVELLNMSLTALREKLLEAEQSL [E5L]	2.43
SEVEFLNMSLTALREKLLEAEQSL [E5F]	2.76
SEVERLNMSLTALREKLLEAEQSL [E5R]	2.35
SEVEILNMSLTALREKLLEAEQSL [E5I]	1.95
SEVEALNMSLTALREKLLEAEQSL [E5A]	2.37
SEVECLNMSLTALREKLLEAEQSL [E5C]	2.31

Variant	protein stability index
SEVESLNMSLTALREKLLEAEQSL [E5S]	3.06
SEVEYLNMSLTALREKLLEAEQSL [E5Y]	2.03
SEVEKLNMSLTALREKLLEAEQSL [E5K]	2.6
SEVEWLNMSLTALREKLLEAEQSL [E5W]	1.79
SEVEQLNMSLTALREKLLEAEQSL [E5Q]	2.72
SEVEEANMSLTALREKLLEAEQSL [L6A]	3.81
SEVEEYNMSLTALREKLLEAEQSL [L6Y]	2.6
SEVEEMNMSLTALREKLLEAEQSL [L6M]	3.47
SEVEEDNMSLTALREKLLEAEQSL [L6D]	4.41
SEVEECNMSLTALREKLLEAEQSL [L6C]	3.71
SEVEERNMSLTALREKLLEAEQSL [L6R]	2.87
SEVEEGNMSLTALREKLLEAEQSL [L6G]	3.95
SEVEENNMSLTALREKLLEAEQSL [L6N]	3.89
SEVEETNMSLTALREKLLEAEQSL [L6T]	3.02
SEVEEENMSLTALREKLLEAEQSL [L6E]	4.33
SEVEESNMSLTALREKLLEAEQSL [L6S]	3.71
SEVEEWNMSLTALREKLLEAEQSL [L6W]	2.95
SEVEEPNMSLTALREKLLEAEQSL [L6P]	3.99
SEVEEFNMSLTALREKLLEAEQSL [L6F]	3
SEVEEKNMSLTALREKLLEAEQSL [L6K]	3.75
SEVEEINMSLTALREKLLEAEQSL [L6I]	2.76
SEVEEQNMSLTALREKLLEAEQSL [L6Q]	3.51
SEVEEHNMSLTALREKLLEAEQSL [L6H]	3.31
SEVEEVNMSLTALREKLLEAEQSL [L6V]	3.58
